Data on 38 variants can be found in the Human Domainome abundance scans (Beltran et al. 2025).

± gives the uncertainty stated by the source.

To fix the notation:
B1: Far upstream element-binding protein 2, residues 142 to 214; numbered along this chain, Q92945 (parent)
chain: RTSMTEEYRVPDGMVGLIIGRGGEQINKIQQDSGCKVQISPDSGGLPERSVSLTGAPESVQKAKMMLDDIVSR

This data set covers variants of B1. As to the kind of experiment: abundance fitness (aPCA) (normalised: wild type 0, dead -1); higher = more abundant; growth selection in yeast, the domain comes from the species named. The following applies: Homo sapiens.
For the variant RTSMTEEYRVPDGMVGLIIGRGGEQINKIQQDSGCKVQISPDSGGLPERSVSLTGAPESVQKAKMMLDDIVTR [S72T], the abundance fitness was -0.042 ± 0.052.
Under RTSMTEEYRVPDGMVGLIIGRGGEQINKIQQDSGCKVQISPDSGGLPERSVSLTGAPESVQKAKMMLDDIVAR [S72A] stands 0.016 ± 0.046; under RTSMTEEYRVPDGMVGLIIGRGGEQINKIQQDSGCKVQISPDSGGLPERSVSLTGAPESVQKAKMMLTDIVSR [D68T], -0.278 ± 0.045.
Under RTSMTEEYRVPDGMVGLIIGRGGEQINKIQQDSGCKVQISPDSGGLPERSVSLTGAPESVQKAKMMLWDIVSR [D68W] stands -0.62 ± 0.054; under RTSMTEEYRVPDGMVGLIIGRGGEQINKIQQDSGCKVQISPDSGGLPERSVSLTGAPESVQKAKMMLSDIVSR [D68S], -0.138 ± 0.04.
For RTSMTEEYRVPDGMVGLIIGRGGEQINKIQQDSGCKVQISPDSGGLPERSVSLTGAPESVQKAKMMLVDIVSR [D68V] the value was -0.456 ± 0.046.
Turning to RTSMTEEYRVPDGMVGLIIGRGGEQINKIQQDSGCKVQISPDSGGLPERSVSLTGAPESVQKAKMMLDDIYSR [V71Y], the abundance fitness is -0.22 ± 0.1.
For RTSMTEEYRVPDGMVGLIIGRGGEQINKIQQDSGCKVQISPDSGGLPERSVSLTGAPESVQKAKMMLDDILSR [V71L] the value was 0.001 ± 0.046; for RTSMTEEYRVPDGMVGLIIGRGGEQINKIQQDSGCKVQISPDSGGLPERSVSLTGAPESVQKAKMMLDDINSR [V71N], -0.461 ± 0.1.
On to RTSMTEEYRVPDGMVGLIIGRGGEQINKIQQDSGCKVQISPDSGGLPERSVSLTGAPESVQKAKMMLDDIKSR [V71K], for which the abundance fitness is -0.174 ± 0.057.
Turning to RTSMTEEYRVPDGMVGLIIGRGGEQINKIQQDSGCKVQISPDSGGLPERSVSLTGAPESVQKAKMMLDDIISR [V71I], the abundance fitness was -0.057 ± 0.079.
Take RTSMTEEYRVPDGMVGLIIGRGGEQINKIQQDSGCKVQISPDSGGLPERSVSLTGAPESVQKAKMMLDDIDSR [V71D]: the abundance fitness was -0.458 ± 0.073.
As to RTSMTEEYRVPDGMVGLIIGRGGEQINKIQQDSGCKVQISPDSGGLPERSVSLTGAPESVQKAKMMLDDIMSR [V71M], the abundance fitness was -0.037 ± 0.061.
For RTSMTEEYRVPDGMVGLIIGRGGEQINKIQQDSGCKVQISPDSGGLPERSVSLTGAPESVQKAKMMLDDIFSR [V71F] the value was -0.157 ± 0.11; for RTSMTEEYRVPDGMVGLIIGRGGEQINKIQQDSGCKVQISPDSGGLPERSVSLTGAPESVQKAKMMLDDIGSR [V71G], -0.294 ± 0.039; for RTSMTEEYRVPDGMVGLIIGRGGEQINKIQQDSGCKVQISPDSGGLPERSVSLTGAPESVQKAKMMLDDITSR [V71T], -0.032 ± 0.051.
On to RTSMTEEYRVPDGMVGLIIGRGGEQINKIQQDSGCKVQISPDSGGLPERSVSLTGAPESVQKAKMMLDDIPSR [V71P], for which the abundance fitness was -0.553 ± 0.059.
As to RTSMTEEYRVPDGMVGLIIGRGGEQINKIQQDSGCKVQISPDSGGLPERSVSLTGAPESVQKAKMMLDDIESR [V71E], the abundance fitness was -0.485 ± 0.052.
In the case of RTSMTEEYRVPDGMVGLIIGRGGEQINKIQQDSGCKVQISPDSGGLPERSVSLTGAPESVQKAKMMLDDICSR [V71C], the abundance fitness is -0.052 ± 0.064.
For RTSMTEEYRVPDGMVGLIIGRGGEQINKIQQDSGCKVQISPDSGGLPERSVSLTGAPESVQKAKMMLDDIQSR [V71Q] the value was -0.296 ± 0.06; for RTSMTEEYRVPDGMVGLIIGRGGEQINKIQQDSGCKVQISPDSGGLPERSVSLTGAPESVQKAKMMLDDIASR [V71A], -0.142 ± 0.046; for RTSMTEEYRVPDGMVGLIIGRGGEQINKIQQDSGCKVQISPDSGGLPERSVSLTGAPESVQKAKMMLDDIRSR [V71R], -0.224 ± 0.04.
For RTSMTEEYRVPDGMVGLIIGRGGEQINKIQQDSGCKVQISPDSGGLPERSVSLTGAPESVQKAKMMLDDIWSR [V71W], the abundance fitness is -0.211 ± 0.051.
For RTSMTEEYRVPDGMVGLIIGRGGEQINKIQQDSGCKVQISPDSGGLPERSVSLTGAPESVQKAKMMLDDPVSR [I70P] the value was -0.555 ± 0.06; for RTSMTEEYRVPDGMVGLIIGRGGEQINKIQQDSGCKVQISPDSGGLPERSVSLTGAPESVQKAKMMLDDTVSR [I70T], -0.344 ± 0.052; for RTSMTEEYRVPDGMVGLIIGRGGEQINKIQQDSGCKVQISPDSGGLPERSVSLTGAPESVQKAKMMLDDDVSR [I70D], -0.574 ± 0.073.
Turning to RTSMTEEYRVPDGMVGLIIGRGGEQINKIQQDSGCKVQISPDSGGLPERSVSLTGAPESVQKAKMMLDDVVSR [I70V], the abundance fitness was -0.059 ± 0.045.
Under RTSMTEEYRVPDGMVGLIIGRGGEQINKIQQDSGCKVQISPDSGGLPERSVSLTGAPESVQKAKMMLDDWVSR [I70W] stands -0.319 ± 0.052; under RTSMTEEYRVPDGMVGLIIGRGGEQINKIQQDSGCKVQISPDSGGLPERSVSLTGAPESVQKAKMMLDDRVSR [I70R], -0.568 ± 0.043.
Under RTSMTEEYRVPDGMVGLIIGRGGEQINKIQQDSGCKVQISPDSGGLPERSVSLTGAPESVQKAKMMLDDFVSR [I70F] stands -0.235 ± 0.076; under RTSMTEEYRVPDGMVGLIIGRGGEQINKIQQDSGCKVQISPDSGGLPERSVSLTGAPESVQKAKMMLDDGVSR [I70G], -0.497 ± 0.045.
For RTSMTEEYRVPDGMVGLIIGRGGEQINKIQQDSGCKVQISPDSGGLPERSVSLTGAPESVQKAKMMLDDSVSR [I70S] the value was -0.504 ± 0.051; for RTSMTEEYRVPDGMVGLIIGRGGEQINKIQQDSGCKVQISPDSGGLPERSVSLTGAPESVQKAKMMLDDLVSR [I70L], 0.051 ± 0.041; for RTSMTEEYRVPDGMVGLIIGRGGEQINKIQQDSGCKVQISPDSGGLPERSVSLTGAPESVQKAKMMLDDKVSR [I70K], -0.395 ± 0.062.
In the case of RTSMTEEYRVPDGMVGLIIGRGGEQINKIQQDSGCKVQISPDSGGLPERSVSLTGAPESVQKAKMMLDDAVSR [I70A], the abundance fitness was -0.295 ± 0.046.
For RTSMTEEYRVPDGMVGLIIGRGGEQINKIQQDSGCKVQISPDSGGLPERSVSLTGAPESVQKAKMMLDDEVSR [I70E], the abundance fitness was -0.416 ± 0.055.
For RTSMTEEYRVPDGMVGLIIGRGGEQINKIQQDSGCKVQISPDSGGLPERSVSLTGAPESVQKAKMMLDDCVSR [I70C] the value was -0.141 ± 0.067; for RTSMTEEYRVPDGMVGLIIGRGGEQINKIQQDSGCKVQISPDSGGLPERSVSLTGAPESVQKAKMMLDDYVSR [I70Y], -0.153 ± 0.081.
